Assay [1] has as its target T1, BSA (bovine, UniProt P02769).
T1 construct: coated control antigen
Kind of assay: ELISA, coated BSA, dilution series, OD450 [1/3]. For orientation: ELISA stands for enzyme-linked immunosorbent assay.

Assay [2] addresses T2, recombinant MERS-COV spike protein (MERS-CoV, UniProt K9N5Q8 18-1291).
T2 sequence: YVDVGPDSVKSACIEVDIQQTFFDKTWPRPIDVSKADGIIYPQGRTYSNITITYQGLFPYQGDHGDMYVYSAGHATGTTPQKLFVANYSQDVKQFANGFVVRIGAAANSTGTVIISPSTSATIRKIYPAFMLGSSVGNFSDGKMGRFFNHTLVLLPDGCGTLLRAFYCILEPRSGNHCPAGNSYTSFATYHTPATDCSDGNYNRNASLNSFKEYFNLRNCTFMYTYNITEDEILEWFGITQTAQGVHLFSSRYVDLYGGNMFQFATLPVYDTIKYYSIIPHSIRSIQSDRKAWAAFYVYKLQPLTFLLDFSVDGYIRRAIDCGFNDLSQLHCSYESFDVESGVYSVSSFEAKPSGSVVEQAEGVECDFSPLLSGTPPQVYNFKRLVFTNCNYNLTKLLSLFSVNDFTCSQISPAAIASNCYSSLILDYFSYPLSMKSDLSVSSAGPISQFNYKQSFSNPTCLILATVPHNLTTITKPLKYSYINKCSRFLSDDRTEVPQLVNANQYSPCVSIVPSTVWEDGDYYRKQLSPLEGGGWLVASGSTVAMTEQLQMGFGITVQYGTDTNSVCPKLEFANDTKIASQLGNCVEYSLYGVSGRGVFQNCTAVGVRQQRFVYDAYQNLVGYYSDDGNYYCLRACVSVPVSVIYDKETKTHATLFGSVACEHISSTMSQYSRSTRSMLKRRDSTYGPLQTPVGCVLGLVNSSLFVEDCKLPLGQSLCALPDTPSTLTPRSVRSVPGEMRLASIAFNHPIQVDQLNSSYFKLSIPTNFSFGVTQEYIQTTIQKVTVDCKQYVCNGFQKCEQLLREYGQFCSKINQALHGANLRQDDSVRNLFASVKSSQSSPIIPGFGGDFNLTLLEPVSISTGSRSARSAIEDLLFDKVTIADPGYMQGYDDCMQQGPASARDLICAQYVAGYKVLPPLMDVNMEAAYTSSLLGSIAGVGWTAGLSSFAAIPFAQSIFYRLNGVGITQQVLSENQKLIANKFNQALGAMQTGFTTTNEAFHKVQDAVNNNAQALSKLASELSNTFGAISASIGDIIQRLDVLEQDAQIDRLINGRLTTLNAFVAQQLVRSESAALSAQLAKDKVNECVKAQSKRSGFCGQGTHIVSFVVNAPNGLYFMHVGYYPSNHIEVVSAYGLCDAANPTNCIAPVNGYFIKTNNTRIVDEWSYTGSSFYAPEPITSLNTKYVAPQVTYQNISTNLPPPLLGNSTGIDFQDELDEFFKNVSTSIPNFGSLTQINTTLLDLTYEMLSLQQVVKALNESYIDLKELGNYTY
Kind of assay: ELISA, periplasmic extract 1/10, heat map of binding (%).

For assay [3], the target named is T3, recombinant HKU1 spike protein (HCoV-HKU1, UniProt Q5MQD0 13-1276).
T3 sequence: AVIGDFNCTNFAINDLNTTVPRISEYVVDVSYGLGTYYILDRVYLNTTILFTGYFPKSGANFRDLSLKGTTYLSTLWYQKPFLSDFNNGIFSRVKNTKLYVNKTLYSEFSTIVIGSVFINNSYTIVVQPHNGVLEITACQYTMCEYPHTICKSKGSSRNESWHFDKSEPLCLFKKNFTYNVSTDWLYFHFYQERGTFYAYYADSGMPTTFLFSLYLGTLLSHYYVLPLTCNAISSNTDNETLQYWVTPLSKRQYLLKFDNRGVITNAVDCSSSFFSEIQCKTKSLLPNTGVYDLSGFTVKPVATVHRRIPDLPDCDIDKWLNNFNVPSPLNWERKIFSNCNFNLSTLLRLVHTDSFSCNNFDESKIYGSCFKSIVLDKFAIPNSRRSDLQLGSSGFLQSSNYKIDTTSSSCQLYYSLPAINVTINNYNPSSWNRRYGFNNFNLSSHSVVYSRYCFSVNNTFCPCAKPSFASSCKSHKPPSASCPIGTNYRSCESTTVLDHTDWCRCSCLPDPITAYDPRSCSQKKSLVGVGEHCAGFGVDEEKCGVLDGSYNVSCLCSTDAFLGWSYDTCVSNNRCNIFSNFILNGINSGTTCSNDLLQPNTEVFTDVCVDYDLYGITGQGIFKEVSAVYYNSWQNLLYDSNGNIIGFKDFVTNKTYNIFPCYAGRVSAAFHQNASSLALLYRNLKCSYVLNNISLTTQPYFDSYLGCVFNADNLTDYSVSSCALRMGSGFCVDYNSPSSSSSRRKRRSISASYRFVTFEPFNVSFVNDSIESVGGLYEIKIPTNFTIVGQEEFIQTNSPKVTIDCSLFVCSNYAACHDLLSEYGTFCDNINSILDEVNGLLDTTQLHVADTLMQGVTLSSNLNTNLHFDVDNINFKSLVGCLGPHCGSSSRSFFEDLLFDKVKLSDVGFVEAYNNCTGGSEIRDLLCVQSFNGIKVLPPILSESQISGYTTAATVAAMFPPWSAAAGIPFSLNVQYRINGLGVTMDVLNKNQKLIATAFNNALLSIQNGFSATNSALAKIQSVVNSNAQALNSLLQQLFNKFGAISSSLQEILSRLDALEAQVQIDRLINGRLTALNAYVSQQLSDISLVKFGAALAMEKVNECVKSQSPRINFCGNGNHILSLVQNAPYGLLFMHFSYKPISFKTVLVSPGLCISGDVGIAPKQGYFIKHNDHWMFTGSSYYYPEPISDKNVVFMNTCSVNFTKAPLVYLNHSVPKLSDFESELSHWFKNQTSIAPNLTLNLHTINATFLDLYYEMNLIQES
The assay is described as above.

Assay [4] concerns the target T1, BSA. Kind of assay: ELISA, coated BSA, dilution series, OD450 [2/3].
For assay [5], the target named is SARS-COV-2 RBD (His-tagged, Sinobiologicals) (SARS-CoV-2 (Wuhan), UniProt P0DTC2 319-541). Description: ELISA, periplasmic extract 1/10, OD450 antigen/OD450 BSA.

Changes are numbered by the printed parent chain.

T1 sequence (P02769 25-607 limits assumed): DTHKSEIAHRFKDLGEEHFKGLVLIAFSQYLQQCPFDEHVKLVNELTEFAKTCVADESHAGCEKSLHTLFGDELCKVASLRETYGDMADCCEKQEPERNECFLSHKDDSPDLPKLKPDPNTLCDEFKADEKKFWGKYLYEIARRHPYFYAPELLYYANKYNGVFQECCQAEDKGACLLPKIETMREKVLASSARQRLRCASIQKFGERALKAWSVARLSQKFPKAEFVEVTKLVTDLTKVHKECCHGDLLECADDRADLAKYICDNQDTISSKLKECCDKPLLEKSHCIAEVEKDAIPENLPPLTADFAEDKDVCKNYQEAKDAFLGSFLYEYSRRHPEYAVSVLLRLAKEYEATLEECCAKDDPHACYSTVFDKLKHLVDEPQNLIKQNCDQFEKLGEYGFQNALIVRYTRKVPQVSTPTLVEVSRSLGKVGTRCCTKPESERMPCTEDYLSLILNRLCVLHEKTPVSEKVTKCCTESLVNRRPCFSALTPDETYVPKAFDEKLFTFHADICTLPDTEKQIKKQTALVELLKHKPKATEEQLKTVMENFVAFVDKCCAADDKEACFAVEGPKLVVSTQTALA

B1: VHH R3_DC23 (VHH)
VHH: QVQLQESGGGLVQAGDSLTLSCAVSGRIFSTYTMGWFRQAPGKEREFVAAVRWGAGTIYYADSMKGRFTISRDSAKNTVDLQMNSTKPEDTAVYYCGAAYVSKANYGSLWYQDSRRYDYWGQGTQVTVSS
On to B1, for which the binding result is reported as “no binding (tested: 10 µg/ml)” with BSA [1]; “no binding (tested: extract 1/10, concentration not given)” in assay [2]; “no binding (tested: extract 1/10, concentration not given)” in assay [3].

B2: VHH R4_DC6 (VHH)
VHH: QVQLQESGGGLVQAGDSLRLSCAASGRILSTFTMGWFRQAPGKEREFVAAMRWNGGTKNYADSVKGRFTISRDNANSVVYLQMNSTKPEDTAVYYCAAAYVSKANYGSLWYRTPSLYDYWGQGTQVTVSS
Turning to B2, the binding result in assay [2] is listed as “no binding (tested: extract 1/10, concentration not given)”; in assay [3] it was “no binding (tested: extract 1/10, concentration not given)”.

B3: VHH R3_C4 (VHH)
VHH: QVQLQESGGGLVQAGDSLRLSCAVSGRPFSTYTMGWFRQAPGKEREFVAAMRWSGGTIYYADSVKGRFTISRDNDKNTVNLEMNSLKPEDTAVYYCAAAYVSKANYGSLWYRASGLYDYWGQGTQVTVSS
Turning to B3, the binding result with BSA [4] is on record as “no binding (tested: 10 µg/ml)”; in assay [2] it was “no binding (tested: extract 1/10, concentration not given)”; in assay [3], “no binding (tested: extract 1/10, concentration not given)”.

B4: VHH R4_DC16 (VHH)
VHH: B3 VHH with D75A, K76Q, E82Q, L109S, A113N
Take B4: the binding result with BSA [4] is given as “no binding (tested: 10 µg/ml)”; in assay [2] it was “no binding (tested: extract 1/10, concentration not given)”; in assay [3], “no binding (tested: extract 1/10, concentration not given)”.

B5: VHH R4_DC9 (VHH)
VHH: QVQLQESGGGLVQAGDSLRLSCAASGRIFSTYTMGWFRQAPGMEREFVAAIRWSGSTVYYADSVKGRFTISRDNAKNTVYLQMNSLKPEDTAVYYCAAARVSKANYGTLWYRASGLYDYWGQGTQVTVSS
B5: the binding result in assay [2] is “no binding (tested: extract 1/10, concentration not given)”; in assay [3], “no binding (tested: extract 1/10, concentration not given)”.

B6: VHH R4_DC13 (VHH)
VHH: B3 VHH with A14T, A50S, I58V, A61S, E82Q, S85N, L109F, A113N, G115D
With B6, the binding result is “no binding (tested: 10 µg/ml)” with BSA [4]; “no binding (tested: extract 1/10, concentration not given)” in assay [2]; “no binding (tested: extract 1/10, concentration not given)” in assay [3].

B7: VHH R3_DC20 (VHH)
VHH: B3 VHH with D75A, K76Q, E82Q, K87E, A113N
Consider B7, for which the binding result in the assay with BSA [1] is “no binding (tested: 10 µg/ml)”; in assay [5], “no binding (tested: extract 1/10, concentration not given)”; in assay [2] it was “no binding (tested: extract 1/10, concentration not given)”; in assay [3] it was “no binding (tested: extract 1/10, concentration not given)”.

B8: VHH R3_DC9 (VHH)
VHH: B3 VHH with A14T, A50S, I58M, A61S, E82Q, A113N
As to B8, the binding result is given as “no binding (tested: extract 1/10, concentration not given)” in assay [5]; “no binding (tested: extract 1/10, concentration not given)” in assay [2]; “no binding (tested: extract 1/10, concentration not given)” in assay [3].

B9: VHH R3_DC2 (VHH)
VHH: B3 VHH with A14T, A50S, I58K, A61S, T69S, K76Q, E82Q, A113N
Regarding B9, the binding result with BSA [4] is recorded as “no binding (tested: 10 µg/ml)”; in assay [5], “no binding (tested: extract 1/10, concentration not given)”; in assay [2], “no binding (tested: extract 1/10, concentration not given)”; in assay [3] it was “no binding (tested: extract 1/10, concentration not given)”.

B10: VHH R4_DC20 (VHH)
VHH: B3 VHH with A14T, A50S, I58M, Y59N, K76Q, E82Q, A113N
As for B10, the binding result in the assay with BSA [1] was “no binding (tested: 10 µg/ml)”; in assay [2], “no binding (tested: extract 1/10, concentration not given)”; in assay [3], “no binding (tested: extract 1/10, concentration not given)”.

(Values after patent US20250313611A1 (VIB VZW, published 2025).)
